Assays:
[1] = target: equine LH/CGR-N291Q (equine)
[2] = target: equine LH/CGR-N99Q (equine)
[3] = target: equine lutropin hormone/choriogonadotropin receptor, wild type (equine LH/CGR-WT) (equine)
[4] = target: equine LH/CGR-N174Q (equine)
[5] = target: equine LH/CGR-N50Q (equine)
[6] = target: equine LH/CGR-N313Q (equine)
[7] = target: equine LH/CGR-N299Q (equine)
[8] = target: equine LH/CGR-N195Q (equine)
[9] = target: equine LH/CGR-N291Q (equine); remark: listed apart in the source
[10] = target: equine LH/CGR-N99Q (equine); remark: listed apart in the source
[11] = target: equine lutropin hormone/choriogonadotropin receptor, wild type (equine LH/CGR-WT) (equine); remark: listed apart in the source
[12] = target: equine LH/CGR-N174Q (equine); remark: listed apart in the source
[13] = target: equine LH/CGR-N50Q (equine); remark: listed apart in the source
[14] = target: equine LH/CGR-N313Q (equine); remark: listed apart in the source
[15] = target: equine LH/CGR-N299Q (equine); remark: listed apart in the source
[16] = target: equine LH/CGR-N195Q (equine); remark: listed apart in the source

Substance: recombinant equine chorionic gonadotropin (rec-eCG) (from UniProt P08751 21-169; P01220 25-120) (ligand)
- t1/2 of the loss of cell surface receptor (anti-VSVG ELISA on cells) after rec-eCG treatment, 0-120 min [1]: 14.3 min
- t1/2 of the loss of cell surface receptor (anti-VSVG ELISA on cells) after rec-eCG treatment, 0-120 min [2]: 5.2 min
- t1/2 of the loss of cell surface receptor (anti-VSVG ELISA on cells) after rec-eCG treatment, 0-120 min [3]: 5.6 min
- t1/2 of the loss of cell surface receptor (anti-VSVG ELISA on cells) after rec-eCG treatment, 0-120 min [4]: 3.3 min
- t1/2 of the loss of cell surface receptor (anti-VSVG ELISA on cells) after rec-eCG treatment, 0-120 min [5]: 5.6 min
- t1/2 of the loss of cell surface receptor (anti-VSVG ELISA on cells) after rec-eCG treatment, 0-120 min [6]: 13.3 min
- t1/2 of the loss of cell surface receptor (anti-VSVG ELISA on cells) after rec-eCG treatment, 0-120 min [7]: 12.8 min
- t1/2 of the loss of cell surface receptor (anti-VSVG ELISA on cells) after rec-eCG treatment, 0-120 min [8]: 31.4 min
- EC50 of the cAMP response (HTRF) of transfected CHO-K1 cells stimulated with rec-eCG for 30 min [9]: 0.0184 µg/mL
- EC50 of the cAMP response (HTRF) of transfected CHO-K1 cells stimulated with rec-eCG for 30 min [10]: 0.0241 µg/mL
- EC50 of the cAMP response (HTRF) of transfected CHO-K1 cells stimulated with rec-eCG for 30 min [11]: 0.0237 µg/mL
- EC50 of the cAMP response (HTRF) of transfected CHO-K1 cells stimulated with rec-eCG for 30 min [12]: 0.179 µg/mL
- EC50 of the cAMP response (HTRF) of transfected CHO-K1 cells stimulated with rec-eCG for 30 min [13]: 0.0177 µg/mL
- EC50 of the cAMP response (HTRF) of transfected CHO-K1 cells stimulated with rec-eCG for 30 min [14]: 0.0347 µg/mL
- EC50 of the cAMP response (HTRF) of transfected CHO-K1 cells stimulated with rec-eCG for 30 min [15]: 0.0269 µg/mL
- EC50 of the cAMP response (HTRF) of transfected CHO-K1 cells stimulated with rec-eCG for 30 min [16]: 0.136 µg/mL

From publication PMC12384393
